The numbers were not newly measured in article PMC3201939, which cites them from elsewhere.

What is called pKa is the negative logarithm of the acid dissociation constant.

The target of this data set is Cys22 (UniProt position 23, FIKPTCPYCRR).

As for “Glutaredoxin 1 (Grx1, thioltransferase) (Homo sapiens)”, the pKa was 3.5.
